Reference: patent US20210246166A1 (Bayer, published 2021)
Bridge positions count the residues as written; N and C are the ends. Square brackets hold non-standard residues; d marks the D form. Ends that are not written are not given here. Oic = O=C(O)[C@@H]1C[C@@H]2CCCC[C@@H]2N1; Phe(2-Br) = N[C@@H](Cc1ccccc1Br)C(=O)O; tBuAla = CC(C)(C)C[C@H](N)C(=O)O; Pen = CC(C)(S)[C@H](N)C(=O)O; NMeC = CN[C@@H](CS)C(=O)O; NMeA = CN[C@@H](C)C(=O)O; Sar = CNCC(=O)O

T1: recombinant human MASP1 active protease (amino acids 297-699, C-terminal His Tag) (human, UniProt P48740 297-699)
T1 sequence: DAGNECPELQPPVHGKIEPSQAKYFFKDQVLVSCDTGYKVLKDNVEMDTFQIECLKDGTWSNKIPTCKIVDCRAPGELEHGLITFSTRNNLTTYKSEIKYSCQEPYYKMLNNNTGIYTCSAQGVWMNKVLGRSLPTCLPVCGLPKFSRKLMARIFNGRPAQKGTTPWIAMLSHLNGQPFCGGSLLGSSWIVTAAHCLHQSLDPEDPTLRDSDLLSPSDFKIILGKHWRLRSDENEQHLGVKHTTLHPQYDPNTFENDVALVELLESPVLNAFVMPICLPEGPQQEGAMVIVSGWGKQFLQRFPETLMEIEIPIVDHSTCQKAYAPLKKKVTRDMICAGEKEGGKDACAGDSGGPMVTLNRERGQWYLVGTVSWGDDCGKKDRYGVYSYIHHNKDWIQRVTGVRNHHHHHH


Key:
[1] = molecular target: recombinant human MASP2 active protease (amino acids 297-686, C-terminal His Tag) (human, UniProt O00187 297-686); assay: cell-based or functional assay
[2] = molecular target: T1, recombinant human MASP1 active protease …; assay: cell-based or functional assay

Chain of recombinant human MASP2 active protease (amino acids 297-686, C-terminal His Tag) (O00187 other isoform, or with tags, fused parts or gaps limits assumed): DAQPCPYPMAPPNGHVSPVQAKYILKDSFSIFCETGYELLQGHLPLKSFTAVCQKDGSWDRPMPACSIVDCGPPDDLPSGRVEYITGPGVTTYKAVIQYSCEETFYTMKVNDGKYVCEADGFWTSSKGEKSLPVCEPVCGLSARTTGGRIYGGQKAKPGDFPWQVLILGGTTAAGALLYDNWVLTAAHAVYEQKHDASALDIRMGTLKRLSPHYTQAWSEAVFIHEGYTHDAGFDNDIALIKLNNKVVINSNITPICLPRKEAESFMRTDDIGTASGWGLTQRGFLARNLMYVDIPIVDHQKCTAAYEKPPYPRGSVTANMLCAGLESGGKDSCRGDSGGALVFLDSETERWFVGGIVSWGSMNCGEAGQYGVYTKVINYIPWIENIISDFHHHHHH

| human MASP2 IC50 [1] [nM] | human MASP1 IC50 [2] [nM] | Binder |
| --- | --- | --- |
| 360 | 3 | AICSRSLP[Oic]I[Pen]I-OH (disulfide 3-11; N-terminus assumed; SMILES CC[C@H](C)[C@H](NC(=O)[C@H]1NC(=O)[C@H]([C@@H](C)CC)NC(=O)[C@@H]2C[C@@H]3CCCC[C@@H]3N2C(=O)[C@@H]2CCCN2C(=O)[C@H](CC(C)C)NC(=O)[C@H](CO)NC(=O)[C@H](CCCNC(=N)N)NC(=O)[C@H](CO)NC(=O)[C@@H](NC(=O)[C@@H](NC(=O)[C@H](C)N)[C@@H](C)CC)CSSC1(C)C)C(=O)O) [AIC+SRSLP-(Oic)-I-(Pen)+I-OH] |
| 230 | 2.8 | SICSRS[tBuAla]PPI[NMeC]I-NH2 (disulfide 3-11; N-terminus assumed; SMILES CC[C@H](C)[C@H](NC(=O)[C@@H]1CSSC[C@H](NC(=O)[C@@H](NC(=O)[C@@H](N)CO)[C@@H](C)CC)C(=O)N[C@@H](CO)C(=O)N[C@@H](CCCNC(=N)N)C(=O)N[C@@H](CO)C(=O)N[C@@H](CC(C)(C)C)C(=O)N2CCC[C@H]2C(=O)N2CCC[C@H]2C(=O)N[C@@H]([C@@H](C)CC)C(=O)N1C)C(N)=O) [SIC+SRS-((tBu)A)-PPI-((N-Me)C)+I-NH2] |
| 160 | 2.9 | AICSRSLP[Oic]I[Pen]IP-OH (disulfide 3-11; N-terminus assumed; SMILES CC[C@H](C)[C@H](NC(=O)[C@H](C)N)C(=O)N[C@H]1CSSC(C)(C)[C@@H](C(=O)N[C@H](C(=O)N2CCC[C@H]2C(=O)O)[C@@H](C)CC)NC(=O)[C@H]([C@@H](C)CC)NC(=O)[C@@H]2C[C@@H]3CCCC[C@@H]3N2C(=O)[C@@H]2CCCN2C(=O)[C@H](CC(C)C)NC(=O)[C@H](CO)NC(=O)[C@H](CCCNC(=N)N)NC(=O)[C@H](CO)NC1=O) [AIC+SRSLP-(Oic)-I-(Pen)+IP-OH] |
| 200 | 2.9 | [NMeA]ICSRSLP[Oic]I[Pen]IP-OH (disulfide 3-11; N-terminus assumed; SMILES CC[C@H](C)[C@H](NC(=O)[C@H](C)NC)C(=O)N[C@H]1CSSC(C)(C)[C@@H](C(=O)N[C@H](C(=O)N2CCC[C@H]2C(=O)O)[C@@H](C)CC)NC(=O)[C@H]([C@@H](C)CC)NC(=O)[C@@H]2C[C@@H]3CCCC[C@@H]3N2C(=O)[C@@H]2CCCN2C(=O)[C@H](CC(C)C)NC(=O)[C@H](CO)NC(=O)[C@H](CCCNC(=N)N)NC(=O)[C@H](CO)NC1=O) [((N-Me)A)-IC+SRSLP-(Oic)-I-(Pen)+IP-OH] |
| 145 | 2.8 | [NMeA]ICSRSLP[Oic]I[Pen]IPD-NH2 (disulfide 3-11; N-terminus assumed; SMILES CC[C@H](C)[C@H](NC(=O)[C@H](C)NC)C(=O)N[C@H]1CSSC(C)(C)[C@@H](C(=O)N[C@H](C(=O)N2CCC[C@H]2C(=O)N[C@@H](CC(=O)O)C(N)=O)[C@@H](C)CC)NC(=O)[C@H]([C@@H](C)CC)NC(=O)[C@@H]2C[C@@H]3CCCC[C@@H]3N2C(=O)[C@@H]2CCCN2C(=O)[C@H](CC(C)C)NC(=O)[C@H](CO)NC(=O)[C@H](CCCNC(=N)N)NC(=O)[C@H](CO)NC1=O) [((N-Me)A)-IC+SRSLP-(Oic)-I-(Pen)+IPD-NH2] |
| 69.6 | 2.9 | [Sar]ICSRSLP[Oic]I[Pen]IP-NH2 (disulfide 3-11; also: TFA salt) [((N-Me)G)-IC+SRSLP-(Oic)-I-(Pen)+IP-NH2] |
| 89 | 2.9 | [Sar]ICSRSLP[Oic]I[Pen]IP[PEG4‑CH2CO2H (15 atoms)]-NH2 (disulfide 3-11) [((N-Me)G)-IC+SRSLP-(Oic)-I-(Pen)+IP-(PEG4-CH2CO2H (15 atoms))-NH2] |
| 50 | 1.14 | PICSRS[tBuAla]PPI[Pen]IPD-NH2 (disulfide 3-11; N-terminus assumed; SMILES CC[C@H](C)[C@H](NC(=O)[C@@H]1CCCN1)C(=O)N[C@H]1CSSC(C)(C)[C@@H](C(=O)N[C@H](C(=O)N2CCC[C@H]2C(=O)N[C@@H](CC(=O)O)C(N)=O)[C@@H](C)CC)NC(=O)[C@H]([C@@H](C)CC)NC(=O)[C@@H]2CCCN2C(=O)[C@@H]2CCCN2C(=O)[C@H](CC(C)(C)C)NC(=O)[C@H](CO)NC(=O)[C@H](CCCNC(=N)N)NC(=O)[C@H](CO)NC1=O) [PIC+SRS-((tBu)A)-PPI-(Pen)+IPD-NH2] |
| 130 | 2.8 | AICSRS[tBuAla]P[Oic]I[Pen]IPD-NH2 (disulfide 3-11; N-terminus assumed; SMILES CC[C@H](C)[C@H](NC(=O)[C@H](C)N)C(=O)N[C@H]1CSSC(C)(C)[C@@H](C(=O)N[C@H](C(=O)N2CCC[C@H]2C(=O)N[C@@H](CC(=O)O)C(N)=O)[C@@H](C)CC)NC(=O)[C@H]([C@@H](C)CC)NC(=O)[C@@H]2C[C@@H]3CCCC[C@@H]3N2C(=O)[C@@H]2CCCN2C(=O)[C@H](CC(C)(C)C)NC(=O)[C@H](CO)NC(=O)[C@H](CCCNC(=N)N)NC(=O)[C@H](CO)NC1=O) [AIC+SRS-((tBu)A)-P-(Oic)-I-(Pen)+IPD-NH2] |
| 48 | 2.8 | AICSRS[Phe(2-Br)]PPI[Pen]IPD-NH2 (disulfide 3-11; N-terminus assumed; SMILES CC[C@H](C)[C@H](NC(=O)[C@H](C)N)C(=O)N[C@H]1CSSC(C)(C)[C@@H](C(=O)N[C@H](C(=O)N2CCC[C@H]2C(=O)N[C@@H](CC(=O)O)C(N)=O)[C@@H](C)CC)NC(=O)[C@H]([C@@H](C)CC)NC(=O)[C@@H]2CCCN2C(=O)[C@@H]2CCCN2C(=O)[C@H](Cc2ccccc2Br)NC(=O)[C@H](CO)NC(=O)[C@H](CCCNC(=N)N)NC(=O)[C@H](CO)NC1=O) [AIC+SRS-((2-Bromo)F)-PPI-(Pen)+IPD-NH2] |
| 150 | 2.8 | AICSRSLP[Oic]I[Pen]IPE-NH2 (disulfide 3-11; N-terminus assumed; SMILES CC[C@H](C)[C@H](NC(=O)[C@H](C)N)C(=O)N[C@H]1CSSC(C)(C)[C@@H](C(=O)N[C@H](C(=O)N2CCC[C@H]2C(=O)N[C@@H](CCC(=O)O)C(N)=O)[C@@H](C)CC)NC(=O)[C@H]([C@@H](C)CC)NC(=O)[C@@H]2C[C@@H]3CCCC[C@@H]3N2C(=O)[C@@H]2CCCN2C(=O)[C@H](CC(C)C)NC(=O)[C@H](CO)NC(=O)[C@H](CCCNC(=N)N)NC(=O)[C@H](CO)NC1=O) [AIC+SRSLP-(Oic)-I-(Pen)+IPE-NH2] |
| 330 | 3 | AICSRS[tBuAla]PP[(2S)‑2‑(Amino)‑2‑((1S,3R)-3-hydroxycyclohexyl)acetic acid][NMeC]IPD-NH2 (disulfide 3-11) [AIC+SRS-((tBu)A)-PP-((2S)-2-(Amino)-2-[(1S,3R)-3-hydroxycyclohexyl]acetic acid)-((N-Me)C)+IPD-NH2] |
| 130 | 2.9 | AICSRSLP[Oic]I[Pen]IPE-OH (disulfide 3-11; N-terminus assumed; SMILES CC[C@H](C)[C@H](NC(=O)[C@H](C)N)C(=O)N[C@H]1CSSC(C)(C)[C@@H](C(=O)N[C@H](C(=O)N2CCC[C@H]2C(=O)N[C@@H](CCC(=O)O)C(=O)O)[C@@H](C)CC)NC(=O)[C@H]([C@@H](C)CC)NC(=O)[C@@H]2C[C@@H]3CCCC[C@@H]3N2C(=O)[C@@H]2CCCN2C(=O)[C@H](CC(C)C)NC(=O)[C@H](CO)NC(=O)[C@H](CCCNC(=N)N)NC(=O)[C@H](CO)NC1=O) [AIC+SRSLP-(Oic)-I-(Pen)+IPE-OH] |
